In patent US20080311599:

Tests used:
[1] = biological target: T1, p72 (1-600)
T1 chain: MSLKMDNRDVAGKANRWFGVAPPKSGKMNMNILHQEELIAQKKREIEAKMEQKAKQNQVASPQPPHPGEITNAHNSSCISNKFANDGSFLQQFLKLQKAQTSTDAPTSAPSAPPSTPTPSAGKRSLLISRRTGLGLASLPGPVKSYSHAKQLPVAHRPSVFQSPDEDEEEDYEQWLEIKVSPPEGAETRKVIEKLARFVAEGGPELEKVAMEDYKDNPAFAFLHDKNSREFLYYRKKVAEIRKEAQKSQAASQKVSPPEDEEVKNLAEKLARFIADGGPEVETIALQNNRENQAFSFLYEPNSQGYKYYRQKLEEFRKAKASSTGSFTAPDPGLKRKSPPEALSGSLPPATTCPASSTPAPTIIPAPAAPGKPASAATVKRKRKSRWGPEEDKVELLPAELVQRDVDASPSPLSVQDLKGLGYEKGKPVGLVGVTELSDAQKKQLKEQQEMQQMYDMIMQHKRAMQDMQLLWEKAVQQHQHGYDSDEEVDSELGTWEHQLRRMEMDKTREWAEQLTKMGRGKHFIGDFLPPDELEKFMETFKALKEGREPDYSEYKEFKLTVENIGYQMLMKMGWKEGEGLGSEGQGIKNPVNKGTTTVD

[2] = biological target: T2, p72 (D600E)
T2 chain: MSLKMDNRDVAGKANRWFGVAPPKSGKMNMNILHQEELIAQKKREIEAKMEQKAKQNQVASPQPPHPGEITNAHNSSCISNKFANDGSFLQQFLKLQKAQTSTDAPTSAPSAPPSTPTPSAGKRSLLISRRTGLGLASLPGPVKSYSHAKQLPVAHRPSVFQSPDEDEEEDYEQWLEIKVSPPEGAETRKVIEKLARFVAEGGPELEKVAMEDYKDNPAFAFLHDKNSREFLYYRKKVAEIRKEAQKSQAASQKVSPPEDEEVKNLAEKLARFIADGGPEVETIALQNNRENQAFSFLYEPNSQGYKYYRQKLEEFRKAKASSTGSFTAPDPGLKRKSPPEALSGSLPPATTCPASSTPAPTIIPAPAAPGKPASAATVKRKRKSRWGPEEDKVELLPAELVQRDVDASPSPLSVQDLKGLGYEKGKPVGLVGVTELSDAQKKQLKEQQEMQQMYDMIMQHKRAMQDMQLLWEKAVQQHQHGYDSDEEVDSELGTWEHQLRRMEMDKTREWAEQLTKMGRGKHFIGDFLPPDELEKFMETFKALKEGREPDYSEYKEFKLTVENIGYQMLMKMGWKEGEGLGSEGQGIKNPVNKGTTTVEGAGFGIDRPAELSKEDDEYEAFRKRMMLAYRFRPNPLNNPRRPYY

[3] = biological target: T3, p72
T3 chain: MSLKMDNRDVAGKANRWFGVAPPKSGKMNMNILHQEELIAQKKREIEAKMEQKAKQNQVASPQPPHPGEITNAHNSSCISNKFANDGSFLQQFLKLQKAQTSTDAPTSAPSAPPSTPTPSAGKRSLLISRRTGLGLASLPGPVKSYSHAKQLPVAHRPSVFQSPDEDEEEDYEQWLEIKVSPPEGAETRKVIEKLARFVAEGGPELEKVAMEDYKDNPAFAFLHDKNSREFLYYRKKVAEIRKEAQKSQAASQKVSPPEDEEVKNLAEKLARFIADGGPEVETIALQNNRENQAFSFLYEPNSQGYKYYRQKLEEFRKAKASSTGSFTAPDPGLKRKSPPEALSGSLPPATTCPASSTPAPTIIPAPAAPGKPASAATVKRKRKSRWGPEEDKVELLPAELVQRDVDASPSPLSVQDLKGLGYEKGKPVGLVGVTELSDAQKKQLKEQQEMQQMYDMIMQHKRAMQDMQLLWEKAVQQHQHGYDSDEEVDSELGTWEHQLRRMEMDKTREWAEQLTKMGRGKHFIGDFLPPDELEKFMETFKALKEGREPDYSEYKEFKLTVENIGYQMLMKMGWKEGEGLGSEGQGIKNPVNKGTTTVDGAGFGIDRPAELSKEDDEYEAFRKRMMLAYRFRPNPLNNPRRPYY

B1: recombinant active caspase-8 (protein)
chain 1: EELCGVMTISDSPREQDSESQTLDKVYQMKSKPRGYCLIINNHNFAKAREKVPKLHSIRDRNGTHLDAGALTTTFEELHFEIKPHHDCTVEQIYEILKIYQLMDHSNMDCFICCILSHGDKGIIYGTDGQEAPIYELTSQFTGLKCPSLAGKPKVFFI
chain 2: MDFSRNLYDIGEQLDSEDLASLKFLSLDYIPQRKQEPIKDALMLFQRLQEKRMLEESNLSFLKELLFRINRLDLLITYLNTRKEEMERELQTPGRAQISAYRFHFCRMSWAEANSQCQTQSVPFWRRVDHLLIRVMLYQISEEVSRSELRSFKFLLQEEISKCKLDDDMNLLDIFIEMEKRVILGEGKLDILKRVCAQINKSLLKIINDYEEFSKGEELCGVMTISDSPREQDSESQTLDKVYQMKSKPRGYCLIINNHNFAKAREKVPKLHSIRDRNGTHLDAGALTTTFEELHFEIKPHHDCTVEQIYEILKIYQLMDHSNMDCFICCILSHGDKGIIYGTDGQEAPIYELTSQFTGLKCPSLAGKPKVFFIQACQGDNYQKGIPVETDSEEQPYLEMDLSSPQTRYIPDEADFLLGMATVNNCVSYRNPAEGTWYIQSLCQSLRERCPRGDDILTILTEVNYEVSNKDDKKNMGKQMPQPTFTLRKKLVFPSD
cleavage of 35S-labelled p72 mutant in vitro, SDS-PAGE and phospho-imaging [1]: The p72 1-600 mutant co-migrates with the 68 kDa fragment produced after cleavage of the wild type p72 and is not further cleaved by addition of caspase-8 (lanes 2 and 5) | cleavage of 35S-labelled p72 mutant in vitro, SDS-PAGE and phospho-imaging [2]: the same protein profile of p72 D600E mutant is observed in the presence or absence of caspase-8 | cleavage of 35S-labelled p72 in vitro, SDS-PAGE and phospho-imaging [3]: This band disappears after addition of activated caspase-8 for 1 hour and a new smaller fragment corresponding to 68 kDa appears (lane 4)
